The values that follow are results of earlier work, collected in publication PMC8125740.

This data set addresses Amyloid beta (Homo sapiens) (UniProt P05067).

For the substance “Cellular prion protein (from UniProt P04156)”, the Kd is 1 nM.

Broadly, the Kd is the constant that tells how readily two partners part at equilibrium.
